Among the data in publication PMC4003281 are Kd values, retold here.

In this test the target is DegP^S210A/R207P (Escherichia coli) (UniProt P0C0V0). Put plainly: fluorescence polarisation. In general terms: Fluorescence polarisation rises when a labelled molecule tumbles more slowly, as on binding a larger partner.

A word on the Kd: it is the free concentration of one partner at which half of the binding sites on the other are occupied at equilibrium, for simple one-to-one binding. Read a low Kd as a tighter complex.

Substance “^flC18–58, fluorescent peptide derived from residues 18–58 of lysozyme” gave a Kd of 1.7 µM.
